These are literature values, as cited in PMC9528908.

Data set [1] addresses Asp66 (UniProt position 148, FTKKMDENAKK). In words: stability.
Data set [2] has as its target Glu66 (UniProt position 148, FTKKMEENAKK). In words: stability.

With “Staphylococcal nuclease (SNase) V66D variant (Staphylococcus aureus; V66D)”, in data set [1], the pKa was 8.45–9.03. “Staphylococcal nuclease (SNase) V66E variant (Staphylococcus aureus; V66E)”: the pKa in data set [2] is listed as 8.73–9.28.
